Test [1] deals with T1, recombinant biotinylated human PAR2 extracellular domain (residues 1-75), N-terminal AviTag, C-terminal Flag … (human, UniProt P55085 26-75, biotin on the AviTag (enzymatic biotinylation)).
T1 construct: also called Bio-human-PAR2 ECD; human PAR2 ECD; not shown: N-terminal AviTag (Avidity LLC); C-terminal Flag and poly Histidine tags
The test can be described thus: HTRF competition with Dylight650-Par0067 IgG, pH 7.4, IgG. The protocol:
(§1) Parent Par0067 IgG (used as a reference/control in all assays) was pre-diluted to give a 2000 nM stock in each of the two different pH assay buffers (in order to give a top final assay IgG concentration of 500 nM). All test, or other reference/control IgG were tested from a top final assay concentration of ¼ of the neat undiluted sample (i.e. no pre-dilution step was performed). Duplicate 11 point 1:3 serial dilutions then were prepared on 384 well polypropylene Greiner plates in each of the two assay buffers (pH 7.4 & 6.0). 5 μl per well was transferred from the relevant pH IgG dilution plate to the corresponding assay plate (pH 7.4 and pH 6.0). 5 ul of the appropriate pH assay buffer was added to the total and non-specific wells.
(§2) For multipoint dose response curves % Specific Binding values were plotted versus test purified antibody concentration (scFv or IgG). IC₅₀ values were determined via a sigmoidal dose response inhibition variable slope curve fit (4 parameter logistic equation) using Graphpad Prism Software.

Test [2] addresses T1, recombinant biotinylated human PAR2 …. Put plainly: HTRF competition with Dylight650-Par0067 IgG, IgG. The protocol:
as §1, §2
(In TR-FRET formats the signal depends on donor and acceptor labels being close together.)

The target is the same in test [3]. Put plainly: HTRF competition with Dylight650-Par0067 IgG, pH 6.0, IgG. The method, then: as §1, §2

T1 sequence (P55085 26-75): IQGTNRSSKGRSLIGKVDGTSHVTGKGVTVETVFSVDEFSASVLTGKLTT

B1: PaB670162 IgG (antibody, V domains shown)
VH: EVQLLESGGGLVQPGGSLRLSCAASGFTFSSYAMNWVRQAPGKGLEWVSTISYHGHHISYADSHHHRFTISRDNSKNTLYLQMNSLRAEDTAVYYCARINNDPMDVWGQGTLVTVSS
VL: SIELTQPPSVSVSPGQTASITCSGDNLGKKYVQWYQQKPGQSPVLVIYDDSNRPSGIPERFSGSNSGNTATLTISGTQAMDEADYYCHTWDGHHTTGETNHFGGGTKLTVL
notes: IgG1-TM (L234F, L235E, P331S), human lambda light chain
What is called IC50 is the concentration that inhibits the measured activity by half. For B1, the IC50 in test [1] came to 11.4 nM. Besides, in test [2], the “Fold IC50 (pH 6.0 v pH 7.4)” value is 79.5 fold and the “Fold IC50 pH 7.4 (Variant v Par0067)” value was determined as 13.7 fold. Also, the half-inhibitory concentration (IC50) in test [3] was found to be 906 nM.

(Values after patent US20180305450A1 (AstraZeneca / MedImmune, published 2018).)
